Experimental findings from article PMC4709657, “Construction of a subunit-fusion nitrile hydratase and discovery of an innovative metal ion transfer pattern” (Scientific Reports, 2016) are described below.

One data set deals with T1, wild-type NHase (Pseudomonas putida, UniProt P97051+P97052).
T1 construct: gene nthA; tetramer alpha2beta2; EC 4.2.1.84; tag not clearly stated
T1 sequence (P97051 1-210): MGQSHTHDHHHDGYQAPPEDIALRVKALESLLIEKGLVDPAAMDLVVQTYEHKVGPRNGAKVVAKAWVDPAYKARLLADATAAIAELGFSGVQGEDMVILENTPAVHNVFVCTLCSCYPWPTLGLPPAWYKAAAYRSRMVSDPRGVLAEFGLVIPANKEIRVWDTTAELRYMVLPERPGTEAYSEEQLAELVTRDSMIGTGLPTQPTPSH
T1 sequence (P97052 1-217): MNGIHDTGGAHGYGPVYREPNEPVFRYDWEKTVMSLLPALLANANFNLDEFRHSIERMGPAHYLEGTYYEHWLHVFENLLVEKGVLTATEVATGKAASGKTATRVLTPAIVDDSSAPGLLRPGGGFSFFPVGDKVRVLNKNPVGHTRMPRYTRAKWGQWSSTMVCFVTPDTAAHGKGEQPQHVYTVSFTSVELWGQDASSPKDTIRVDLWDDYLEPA
Put plainly: product tolerance: 3-cyanopyridine consumption with / without nicotinamide. To be noted: 20 mM 3-cyanopyridine, 10 min. In kind it is biochemical.

The target in a further data set is T2, NHase-(BA)P14K (Pseudomonas putida, UniProt P97051+P97052).
T2 construct: gene nthB; pET28a, E. coli
T2 sequence (P97052 1-217): T1 sequence (P97052 1-217)
T2 sequence (P97051 1-210): T1 sequence (P97051 1-210)
The description is as above. The conditions noted are these: 20 mM 3-cyanopyridine, 10 min. In kind it is biochemical.

The target of a further data set is T3, NHase-(BAP14K) (Pseudomonas putida, UniProt P97051+P97052).
T3 construct: gene nthB; pET28a, E. coli; cobalt-loaded
T3 sequence (P97052 1-217): T1 sequence (P97052 1-217)
T3 sequence (P97051 1-210): T1 sequence (P97051 1-210)
T3 sequence (O69769 1-127 partner): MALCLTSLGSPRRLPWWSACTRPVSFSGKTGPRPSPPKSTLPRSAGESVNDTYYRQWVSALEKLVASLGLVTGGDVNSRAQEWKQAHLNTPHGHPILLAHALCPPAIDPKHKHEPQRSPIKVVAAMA
Described as above. The data set is classed as biochemical. To be noted: 20 mM 3-cyanopyridine, 10 min.

Substrate in data set [1]: N#Cc1cccnc1
Put plainly: nicotinamide formation, A215. To be noted: 10 mM KPB, 25 °C, 2 min, 10-200 mM substrate, cobalt enzyme. The data set is classed as biochemical, Pseudomonas putida. The source says:
nicotinamide formation, A215 on wild-type NHase

Data set [2] concerns the molecule itself. Put plainly: SEC; purified enzymes and marker proteins on a Superdex 200 10/300 GL column, 10 mM KPB; mass from the standard curve of marker proteins, oligomer inferred from the mass. (SEC sorts molecules by how far they enter the pores of the column.)

Usually Km stands for the concentration of substrate that gives half-maximal velocity. By kcat is commonly meant the maximal rate divided by the concentration of active sites. As a reminder, the kcat/Km is the second-order rate constant that governs catalysis at low substrate concentration. The term stoichiometry N denotes a count of units in the complex or per binding partner.

Turning to `NC(=O)c1cccnc1` [nicotinamide], the “reduction ratio (with / without 0.5 M nicotinamide)” value at wild-type NHase is 0.80; on NHase-(BA)P14K, 0.86; on NHase-(BAP14K) it was 0.83.

B1: wild-type NHase (Pseudomonas putida) (protein)
chain 1: T1 sequence (P97051 1-210)
chain 2: T1 sequence (P97052 1-217)
notes: tetramer alpha2beta2; EC 4.2.1.84; tag not clearly stated
Regarding B1, in data set [1], the Michaelis-Menten constant (Km) is given as 41.2 ± 7.7 mM, the kcat stood at 335 ± 57.6 s⁻¹ and the kcat/Km was determined as 8100 M⁻¹ s⁻¹.

B2: NHase-(BA)P14K, fusion nitrile hydratase encoded by the gene (BA)P14K (enzyme, Pseudomonas putida NRRL-18668)
chain: MNGIHDTGGAHGYGPVYREPNEPVFRYDWEKTVMSLLPALLANANFNLDEFRHSIERMGPAHYLEGTYYEHWLHVFENLLVEKGVLTATEVATGKAASGKTATRVLTPAIVDDSSAPGLLRPGGGFSFFPVGDKVRVLNKNPVGHTRMPRYTRAKWGQWSSTMVCFVTPDTAAHGKGEQPQHVYTVSFTSVELWGQDASSPKDTIRVDLWDDYLEPAPGMGQSHTHDHHHDGYQAPPEDIALRVKALESLLIEKGLVDPAAMDLVVQTYEHKVGPRNGAKVVAKAWVDPAYKARLLADATAAIAELGFSGVQGEDMVILENTPAVHNVFVCTLCSCYPWPTLGLPPAWYKAAAYRSRMVSDPRGVLAEFGLVIPANKEIRVWDTTAELRYMVLPERPGTEAYSEEQLAELVTRDSMIGTGLPTQPTPSH
notes: β-subunit of the cobalt nitrile hydratase of Pseudomonas putida NRRL-18668 (B gene); MALDI-TOF indicated the full length of βα; linker, dipeptide proline-glycine; α-subunit of the cobalt nitrile hydratase of Pseudomonas putida NRRL-18668 (A gene); Same polypeptide as m1 but made with P14K co-expressed from the same plasmid; cobalt-containing (0.84 per βα); P14K is not part of the purified enzyme; …
As to B2, the “stoichiometry N” value in data set [2] worked out at 2.
